Measured values published in patent publication US8637024 (dated 2014).
Substitutions are numbered along the chain they refer to. Numbers in names are those of the source. Where two headings read alike, the source gives them in different places. Blank lines part the entries; values can stand above or below the binder they belong to.

Legend:
human soluble CD4 (sCD4) [1] = molecular target: T1, human soluble CD4 (sCD4) (human, UniProt P01730)
human soluble CD4 (sCD4) [2] = molecular target: T1, human soluble CD4 (sCD4); remark: listed apart in the source
human soluble CD4 (sCD4) [3] = molecular target: T1, human soluble CD4 (sCD4); assay: SPR
human soluble CD4 (sCD4) [4] = molecular target: T1, human soluble CD4 (sCD4); assay: SPR; remark: listed apart in the source
human soluble CD4 (sCD4) [5] = molecular target: T1, human soluble CD4 (sCD4); assay: competition ELISA

Kd (human soluble CD4 (sCD4) [1]): 0.012 nM | Kd (human soluble CD4 (sCD4) [2]): 0.012 nM
B1: SQTLH (clone 33) (antibody, V domains shown)
VH: QVQLQQSGPEVVKPGASVKMSCKASGYTFTSQTLHWVRQKPGQGLDWIGYINPYNDGTDYDEKFKGKATLTSDTSTSTAYMELSSLRSEDTAVYYCAREKDNYATGAWFAYWGQGTLVTVSS
VL: DIVMTQSPDSLAVSLGERVTMNCKSSQSLLYSTNQKNYLAWYQQKPGQSPKLLIYWASTRESGVPDRFSGSGSGTDFTLTISSVQAEDVAVYYCQQYYSYRTFGGGTKLEIK

Kd (human soluble CD4 (sCD4) [3]): 7.7 nM
B2: E95A (antibody, V domains shown)
VH: B1 VH with Q32Y, T33V, L34I, E99A
VL: B1 VL

Kd (human soluble CD4 (sCD4) [1]): 0.0346 nM | Kd (human soluble CD4 (sCD4) [2]): 0.0346 nM | Kd (human soluble CD4 (sCD4) [3]): 0.047 nM
B3: M22 (CDR-H1 DYTIH) (antibody, V domains shown)
VH: B1 VH with S31D, Q32Y, L34I
VL: B1 VL

Kd (human soluble CD4 (sCD4) [2]): 2.47 nM | Kd (human soluble CD4 (sCD4) [4]): 6.72 nM
B4: ML11 (antibody, V domains shown)
VH: B1 VH with Q32Y, T33V, L34I, A97V, N102S, Y103F
VL: B1 VL

Kd (human soluble CD4 (sCD4) [2]): 2.13 nM | Kd (human soluble CD4 (sCD4) [4]): 2.14 nM
B5: ML1 (CDR-H1 SRVLS) (antibody, V domains shown)
VH: B1 VH with Q32R, T33V, H35S
VL: B1 VL

Kd (human soluble CD4 (sCD4) [1]): 0.0173 nM
B6: GQTLH (clone 25, 37) (antibody, V domains shown)
VH: B1 VH with S31G
VL: B1 VL

Kd (human soluble CD4 (sCD4) [1]): 0.0097 nM | Kd (human soluble CD4 (sCD4) [2]): 0.0097 nM | Kd (human soluble CD4 (sCD4) [4]): 0.0042 nM | Kd (human soluble CD4 (sCD4) [3]): 0.018 nM
B7: M24 (CDR-H1 EQTLH) (antibody, V domains shown)
VH: B1 VH with S31E
VL: B1 VL

Kd (human soluble CD4 (sCD4) [1]): 0.0112 nM | Kd (human soluble CD4 (sCD4) [2]): 0.0112 nM
B8: EYTFH (clone 40) (antibody, V domains shown)
VH: B1 VH with S31E, Q32Y, L34F
VL: B1 VL

Kd (human soluble CD4 (sCD4) [1]): 0.0107 nM | Kd (human soluble CD4 (sCD4) [2]): 0.0107 nM
B9: AQTLH (clone 30) (antibody, V domains shown)
VH: B1 VH with S31A
VL: B1 VL

Kd (human soluble CD4 (sCD4) [3]): 0.033 nM
B10: M3 (CDR-H1 EYTIH) (antibody, V domains shown)
VH: B1 VH with S31E, Q32Y, L34I
VL: B1 VL

Kd (human soluble CD4 (sCD4) [1]): 0.0192 nM | Kd (human soluble CD4 (sCD4) [2]): 0.0192 nM
B11: SQTIH (clone 23) (antibody, V domains shown)
VH: B1 VH with L34I
VL: B1 VL

Kd (human soluble CD4 (sCD4) [2]): 3.64 nM | Kd (human soluble CD4 (sCD4) [4]): 4.14 nM
B12: ML26 (antibody, V domains shown)
VH: B1 VH with Q32Y, T33V, L34I, E99Q, K100A, D101A
VL: B1 VL

Kd (human soluble CD4 (sCD4) [1]): 0.0132 nM | Kd (human soluble CD4 (sCD4) [2]): 0.0132 nM | Kd (human soluble CD4 (sCD4) [3]): 0.014 nM
B13: M28 (CDR-H1 DYTFH) (antibody, V domains shown)
VH: B1 VH with S31D, Q32Y, L34F
VL: B1 VL

Kd (human soluble CD4 (sCD4) [2]): 2.23 nM | Kd (human soluble CD4 (sCD4) [4]): 4.83 nM
B14: ML29 (antibody, V domains shown)
VH: B1 VH with Q32Y, T33V, L34I, N102S, Y103L, A104T
VL: B1 VL

Kd (human soluble CD4 (sCD4) [1]): 0.015 nM | Kd (human soluble CD4 (sCD4) [2]): 0.015 nM
B15: DQTLH (clone 27, 31) (antibody, V domains shown)
VH: B1 VH with S31D
VL: B1 VL

Kd (human soluble CD4 (sCD4) [2]): 1.41 nM | Kd (human soluble CD4 (sCD4) [4]): 1.76 nM
B16: ML28 (antibody, V domains shown)
VH: B1 VH with Q32Y, T33V, L34I, T105V, G106P, A107G
VL: B1 VL

Kd (human soluble CD4 (sCD4) [1]): 0.0406 nM
B17: NQTLH (clone 26, 36) (antibody, V domains shown)
VH: B1 VH with S31N
VL: B1 VL

binding result (human soluble CD4 (sCD4) [5]): no binding
B18: m36 (antibody, V domains shown)
VH: QVQLVQSGGGLVQPGGSLRLSCAASAFDFSDYEMSWVRQAPGKGLEWIGEINDSGNTIYNPSLKSRVTISRDNSKNTLYLQMNTLRAEDTAIYYCAIYGGNSGGEYWGQGTLVTVSS

binding result (human soluble CD4 (sCD4) [5]): no binding
B19: iMabΔm36 (iMab arm) (antibody)
chain 1: MEWSGVFMFLLSVTAGVHSQVQLQQSGPEVVKPGASVKMSCKASGYTFTSYVIHWVRQKPGQGLDWIGYINPYNDGTDYDEKFKGKATLTSDTSTSTAYMELSSLRSEDTAVYYCARAKDNAATGAWFAYWGQGTLVTVSSASTKGPSVFPLAPSSKSTSGGTAALGCLVKDYFPEPVTVSWNSGALTSGVHTFPAVLQSSGLYSLSSVVTVPSSSLGTQTYICNVNHKPSNTKVDKKVEPKSCDKTHTCPPCPAPEFEGGPSVFLFPPKPKDTLMISRTPEVTCVVVDVSHEDPEVKFNWYVDGVEVHNAKTKPREEQYNSTYRVVSVLTVLHQDWLNGKEYKCKVSNKALPASIEKTISKAKGQPREPQVYTLPPSRDELTKNQVSLTCLVKGFYPSDIAVEWESNGQPENNYKTTPPVLDSDGSFFLYSKLTVDKSRWQQGNVFSCSVLHEALHSHYTQKSLSLSPGKLEGGGGSGGGGSGGGGSGQVQLVQSGGGLVQPGGSLRLSCAASAFDFSDYEMSWVRQAPGKGLEWIGEINDSGNTIYNPSLKSRVTISRDNSKNTLYLQMNTLRAEDTAIYYCAIYGGNSGGEYWGQGTLVTVSS
chain 2: not shown
